Measurements reported in the domain aggregation screens of Martell et al. (2025).

Experiment: soluble fraction after stress (log2 fold change); higher = more stays soluble; pooled small domains, quantitative proteomics
Settings: stress: pH 4
Outline: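 Small protein domains from pooled custom libraries were exposed to pH 4, then quantified with high-throughput quantitative proteomics. The fold change in how much of each domain remains soluble is read as aggregation propensity. It is given as log2, with higher values meaning more stayed soluble.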

| Sequence | soluble fraction (log2) |
| --- | --- |
| HMSVSVNAPMPGNILDVRAKTGESIQKGQVIVILEAMKMENEIMAPQDGKISSINTSKGSTVNSGDLLFTM | -0.693 |
| HMSVTMPNLVGLDEQTAVTRINSSNLSYGSTNYVHSDHEAGVVFKQSTPAYTEVDEHTKIYIWVSLGPEE | -0.145 |
| HMSVTPLLDATEKDKTKYRDLWLVAVVKNGVNYARKYKFGYVYAWLYRHDRDWLLQVNNQHKIPNIT | -0.107 |
| HMSVTVMVLRAAGDIQAGTEITDKHLATVEVGEYGLPEGIINDKDSILGKIALTDIAKGDYFFSQKLG | -1.31 |
| HMSVVKPIYIGMMTSEVEAIMGKPFEVITNNNSKNNQLWIYKYQDKRSVMLTFTNYKLIKIE | -0.0356 |
| HMSWDNELLERAHKIIELYPQKRSALGPLLYLAQEKDGFISDDSIVEISNLVDITEVQVKSVSSFYSMY | -0.0573 |
| HMSWGDVKLTMWGAEEDQTMLREMADAFIEQNADKGNVTIEIGVQSESSAKDTVLADPESAADVFA | -0.106 |
| HMSWRWVPVSGAYTTSALEAAGLTRAFDDQAAAEEWLGLFFDDLLREGVGEVSLYEEDRLVYGPMSL | -2.33 |
| HMSYANVEWRDFLNSLDEKYRIVVILYYVQGFKTREIAEILQINQSTVRGRLAKAREKLEQQYN | -1.13 |
| HMSYFIFDGVLNLGKQYELKGEESSHITKSRRLRPGDSFLIQDQEGQRFEAILKSFDRNSLIFTPHKPTA | 0.043 |
| HMSYFNEYEVGDTIRVVNGPLADQISTITAIDKEKGLVNISTVFFGRENNVQVSINDIEKYN | -0.903 |
| HMSYGDLTGRTVVITGASKGIGARASRVLAQAGASVVGLARSVDELTALKYDLENDGLSFDFG | ≥ 0.43 |
| HMSYKYYSTERPLMPGSFPKPQGNTVLNIENFNDRSYVGKIGREAWGFIEYEKPISPVLLDDYELVAA | ≥ 0.43 |
| HMSYLELENLAEDIKATYDNLSTDLREVFRLSDIEGLSYEEISNKMNIPIGTVRSRLHRARETLLRIFNN | -1.22 |
| HMSYPTAVTQTTLNVRTGPGTQYERLGAFVENTEVIVLTRQPEWIQVRGMSGDKAIIGWVSARYLQMNP | 0.18 |
| HMSYQNKLNYLINAFGGADNFQKLLGVGPSAISNYKSRKHLPLNQAKRLSKIAPQFGFSLDPHSLQIST | 0.0613 |
| HMSYQSYDKVVGDTFFEANLKAESKFGKGNFEIISTRRVKHPIYLGFGHKELVELTIGIHDP | -0.302 |
| HMSYTAYLSQELGDMSREIQSELLKKGYNGSSSFTIVRTYMGSSVKFSVYNANNGELITSKTINM | -0.306 |
| HMSYTDIILKMSNVNFLTKVNFTNSEKNKNIKNGNFLIKKGKNRITAAFDYKDNELVISKSNLRNTFL | -1.22 |
| HMTAEVIYVDVGGEVNQPSVVELTDGSRVTDAIAAAGGLTEKADLTDINRAAFVSDGEKIFIPSQEE | -0.385 |
| HMTAFAGLTPRERDLLELIAQGRDNAQIAATLGVSDKTVRNHITHIFAKLEVETRAQAIVLARNAGFGRA | -0.0568 |
| HMTAGYFTRGSHQDEVLRIQGTPSGVNKYSDHEVWNYGLSSVDISLRDRRVTEWNNISGNLKV | -0.35 |
| HMTAKRELILRVFMDSNGKLLSIDDVFMEMRKKRSHRTSKMTVKRAIDLLVDLGLLKEVLFDDDNIKYEYV | -0.105 |
| HMTALISGNKAMQMLELSRHSFEKIVKDGLLSIVHEGDKKYYEIGEVEAFMGSDTYKELVNGV | -0.314 |
| HMTALSIGTVVRFTGDRHYISSTGDTGYPASPGLAKITSINPGSKHPYHLIHIDNTSNVYGWVNKQDIIT | ≥ 0.43 |

| Sequence | soluble fraction (log2) |
| --- | --- |
| HMTAQLSITLNGETRRAAAGSIADLVRSLELDPAKVAVERNGLIVPRSTLAEVALGDGDVLEIVHFV | -0.4 |
| HMTASTLSYSKFNEQVVQNQVRKVTFQGEQVKGELISGQTFTTTVPANDTTLWPMLKAHNVDTAVTAA | 0.0376 |
| HMTASVTDAMFELIDELPKLGKTSFRQLTADLVDRLQVVVTFLAVLELYKQGHVELDQSERFGDITVVWTG | -1.11 |
| HMTATIEEVNELTQSARVNINVPYAAKDEAKAYGAKWDDVERTWYTTGENYAQNKDFFDGFNPTAS | -0.132 |
| HMTATWLTYYRIKAGLTQKRLAELAGLNIRQVQKIENGETLAGNTTAKNLLALADALGIDPHKL | -0.381 |
| HMTAYENSIPLNWVIQKGDAKGLPLSANTARLLIDIVGIDLMDLDHELEKISLYLSGESITEEMIKEHIRG | -1.01 |
| HMTDAELDLLTPREQEVLQLIARGYLYKEIARRLGISVKTVEAHASSVLRKLQLSTRHELSHWAAQRH | -0.192 |
| HMTDAYEVLDLNREASDEEIKKRYRELIREHHPDTLIAKGVPQEFVDLANDKMAAINAAYDRIEKDRGL | -0.0939 |
| HMTDEEKENLREKMLEAGFPLLKQYGMTHTSVAKITQAAGIAVGTFYSFWKNKEAYMADLIGYHRR | 0.105 |
| HMTDITSAITRLNKYNKSGTPLTIDSVTPEALQTLQAKVSSAFEIGAVNQQTYDDVTKDIATLQQYLSSA | -0.102 |
| HMTDIVPNLIGKSLKDAIQSVEKSNLKAIFDGHGIVVSQQPRPGSPIPARKIMKVTLSPDYR | 0.135 |
| HMTDKLEEEAKKKAMEDALADEMNISKTIVHDGIRELARIGFLDVISRKGIYVADYTFTGNLETLLAVIRY | -0.0919 |
| HMTDLDDFAARLKTLTDGRASTPRLRDGVMMLSLDVGGLGPDQRDGLIAAIREGGLTVPGVSDVRIVMT | 0.22 |
| HMTDLEDDEKKVYRLIVESGEGIDFDTLSERSGFSATELPSILLFLMMKEMIDELPGKIYRYSE | -0.327 |
| HMTDMYLTYQELRHLGVSQNLISMWKSRKSIDFHMLGGTLYVRYMSIPEQTRSKLALQNVERVYNSRE | 0.0329 |
| HMTDRINIGDVVTIISKDREDSQIVYMRYHKGKLSILGELILNKTKNDTVDFKGRTYDIATIEKS | -0.228 |
| HMTDVHFIDVPVSEGHPWIGLTVKDLNLPPGTLLVFLNHPGEKSTVPNGDTVLREGDVLVLGATAYAG | -1.02 |
| HMTDYKTNLQEFLQQDGEVEIEYKLLAEVGPSHARQFEVDVMMGDRVLGSGVGRNKKAAEQAAAKVALSKL | -0.375 |
| HMTDYVPTIGTKISKDFGSKGYFEGEVVSGPHNVTVEGDNMVVWKVQYEDGDREEMTASEIAHWKA | 0.22 |
| HMTEAIDVPNLVGQNYSDVKSNSSYKFNWDIINVYDSGKPEGEIIKQEPEAGSKKVKENAVITLTVN | -0.0209 |
| HMTEDNDLETIAYDILKERNLNNININVKNGVLNIYGKTETLKEKREIEKILSSLNVSKINNLIKI | ≥ 0.43 |
| HMTEDQDWAIFKQKLKAQTEIDLDLYKEPQMKHRIKNLIQNAGFDSYVQYFDYVYLNQDRLAAFLENLTV | -1.15 |
| HMTEEELLERLDAVITEYKGKPGALIPVLQLAQGIFGYLPEVALKHIARQLDKPYSEVAGVVSFYSFFTT | -0.048 |
| HMTEFDVIMKSFGSEKIKVIKEVRAITGLGLAEAKALVEGVPAKIKEQVSKDDAEALKKQLEAVGAEVEL | -0.76 |
| HMTEFWTGPITTVTKANFADWTLDTNQDRITANVWLTRADSKGLFNITPGKETAFDIVDYLSPLDTEWA | -1.82 |
